Data on one substance can be found in publication doi:10.1101/2025.03.20.644192.

In the assay the target is Chicken CapZ complex, full length α/β (chicken) (UniProt P13127). Briefly: ITC. For orientation: In ITC the heat of successive injections is recorded.

What is called Kd is the concentration at which binding is half-saturated. Lower therefore signals tighter binding.

“RavB, full length, untagged (RavB^WT) (natural protein)” came in with a Kd of 10.8 nM.
